US20110009316A1

Assays:
[1] = target: commercially available recombinant VEGF165 protein (R&D Systems) (UniProt P15692)
[2] = target: VEGF165 wild type synthesized in COS-1 cells (UniProt P15692)
MutAla = MutAla (UniProt P15692)
MutGln = MutGln (UniProt P15692)
[3] = target: commercially available recombinant VEGF165 protein (R&D Systems) (UniProt P15692); assay: cell-based or functional assay
[4] = target: VEGF165 wild type synthesized in COS-1 cells (UniProt P15692); assay: cell-based or functional assay

Sequence of MutLys-Pro (chain, as listed by the source): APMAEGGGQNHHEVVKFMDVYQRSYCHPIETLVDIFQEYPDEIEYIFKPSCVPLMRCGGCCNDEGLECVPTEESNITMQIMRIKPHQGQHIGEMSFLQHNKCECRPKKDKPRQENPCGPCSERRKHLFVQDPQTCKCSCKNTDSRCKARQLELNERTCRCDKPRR
Sequence of MutPro (chain, as listed by the source): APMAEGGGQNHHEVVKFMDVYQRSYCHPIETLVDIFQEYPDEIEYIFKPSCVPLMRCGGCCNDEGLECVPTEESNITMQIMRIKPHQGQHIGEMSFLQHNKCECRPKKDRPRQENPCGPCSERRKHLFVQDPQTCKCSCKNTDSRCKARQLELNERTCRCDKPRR

Row | loss of biological activity (BrdU incorporation into HUVE cells) 20 minutes after incubation with plasmin [3] [%] | remaining biological activity (BrdU incorporation into HUVE cells) after 240 minutes with plasmin (% of the initial activity) [3] | loss of biological activity (BrdU incorporation into HUVE cells) 20 minutes after incubation with plasmin [4] [%] | remaining biological activity (BrdU incorporation into HUVE cells) after 240 minutes with plasmin (% of the initial activity) [4] | Substance | degradation on incubation with plasmin [0.01 U/ml], Western blotting and immunodetection [1] | degradation on incubation with plasmin [0.01 U/ml], Western blotting and immunodetection [2] | degradation on incubation with plasmin [0.01 U/ml], Western blotting and immunodetection (MutAla) | degradation on incubation with plasmin [0.01 U/ml], Western blotting and immunodetection (MutLys-Pro) | degradation on incubation with plasmin [0.01 U/ml], Western blotting and immunodetection (MutPro) | degradation on incubation with plasmin [0.01 U/ml], Western blotting and immunodetection (MutGln)
1 | – | – | – | – | plasmin | the degradation pattern is similar to that of the commercially obtainable VEGF165 | shows degradation of the growth factor after only 15 minutes | the mutated protein shows no change in the migration behaviour up to 240 minutes after incubation | also show a comparable stability of the signal bands at 45 and 42 kDA after incubation with plasmid for 240 minutes | also show a comparable stability of the signal bands at 45 and 42 kDA after incubation with plasmid for 240 minutes | also show a comparable stability of the signal bands at 45 and 42 kDA after incubation with plasmid for 240 minutes
2 | > 20 | 50 | > 20 | 50 | plasmin (enzyme) | – | – | – | – | – | –
